Laboratory results published in US20160031986A1.

Columns and labels:
[1] = biological target: cynomolgus monkey DLL4 extracellular domain (cynomolgus monkey); experiment: Biacore SPR
[2] = biological target: cynomolgus monkey DLL4 extracellular domain (cynomolgus monkey); experiment: binding ELISA
[3] = biological target: cynomolgus monkey DLL4 extracellular domain (cynomolgus monkey); experiment: Biacore SPR; head says nM, kd/ka gives M

Row | Binder | koff [1] [s⁻¹] | kon [1] [M⁻¹ s⁻¹] | EC50 [2] [nM] | Kd [3] [nM]
1 | h1A11.1 (antibody, V domains shown) VH: EVQLVESGGGLVQPGGSLRLSCAASGFTFSNFPMAWVRQAPGKGLEWVATISSSDGTTYYRDSVKGRFTISRDNAKNSLYLQMNSLRAEDTAVYYCARGYYNSPFAYWGQGTLVTVSS VL: DIQMTQSPSSLSASVGDRVTITCRASEDIYSNLAWYQQKPGKAPKLLIYDTNNLADGVPSRFSGSGSGTDFTLTISSLQPEDFATYYCQQYNNYPPTFGQGTKLEIKR | 0.00255 | 144000 | 0.13 | 18
2 | h1A11.A7 (antibody, V domains shown) VH: EVQLVESGGGLVQPGGSLRLSCAASGFTFSNFPMAWVRQAPGKGLEWVATISSSDGTTYYRDSVKGRFTISRDNAKNSLYLQMNSLRAEDTAVYYCARGYYNSPFAYWGQGTLVTVSS VL: DIQMTQSPSSLSASVGDRVTITCRASQDIYINLAWYQQKPGKAPKLLIFDTSDLADGVPSRFSGSGSGTDFTLTISSLQPEDFATYYCQQYDYYPPTFGQGTKLEIK | 0.00124 | 158000 | – | 7.8
3 | h1A11.B5 (antibody, V domains shown) VH: EVQLVESGGGLVQPGGSLRLSCAASGFTFRYFPMSWVRQAPGKGLEWVASISGSDGWASYRDSVKGRFTISRDNAKNSLYLQMNSLRAEDTAVYYCARGYYNSPFASWGQGTLVTVSS VL: DIQMTQSPSSLSASVGDRVTITCRASQDIWNNLAWYQQKPGKSPKLLIFDTSYLADGVPSRFSGSGSGTDFTLTISSLQPEDFATYYCQQYDWYPPTFGQGTKLEIK | 0.000178 | 117000 | – | 1.5
4 | h1A11.B4 (antibody, V domains shown) VH: EVQLVESGGGLVQPGGSLRLSCAASGFTFSNFPMAWVRQAPGKGLEWVATISSSDGTTYYRDSVKGRFTISRDNAKNSLYLQMNSLRAEDTAVYYCARGYYNSPFAYWGQGTLVTVSS VL: DIQMTQSPSSLSASVGDRVTITCRASQDIYYNLAWYQQKPGKAPKLLIFDTNILADGVPSRFSGSGSGTDFTLTISSLQPEDFATYFCQQYDYVPPTFGQGTKLEIK | 0.00099 | 143000 | – | 6.9
5 | h1A11.A2 (antibody, V domains shown) VH: EVQLVESGGGLVQPGGSLRLSCAASGFTFSNFPMAWVRQAPGKGLEWVATISSSDGTTYYRDSVKGRFTISRDNAKNSLYLQMNSLRAEDTAVYYCARGYYNSPFAYWGQGTLVTVSS VL: DIQMTQSPSSLSASVGDRVTITCRASQDIYINLAWYQQKPGKSPKLLIFDTNDLADGVPSRFSGSGSGTDFTLTISSLQPEDFATYYCQQYDYVPPTFGQGTKLEIK | 0.000527 | 134000 | – | 3.9
6 | h1A11.A12 (antibody, V domains shown) VH: EVQLVESGGGLVQPGGSLRLSCAASGFTFSNFPMAWVRQAPGKGLEWVATISSSDGTTYYRDSVKGRFTISRDNAKNSLYLQMNSLRAEDTAVYYCARGYYNSPFAYWGQGTLVTVSS VL: DIQMTQSPSSLSASVGDRVTITCRASQDIYYNLAWYQQKPGKSPKLLIFDTSSLADGVPSRFSGSGSGTDFTLTISSLQPEDFATYFCQQYDWYPPTFGQGTKLEIK | 0.00162 | 158000 | – | 10
